Results on one molecule are retold here after doi:10.1101/2025.03.15.643416.

The target of the series is MMLVRT-WT (Moloney murine leukemia virus, UniProt P03355 660-1330). As to the kind of experiment: DSF thermal shift.

B1: T/P (RNA template/DNA primer) (DNA:RNA)
DNA: TGGAATCAGGTGTCGCACTCTG
RNA: AACAGAGUGCGACACCUGAUUCCAU
With B1, the binding result is reported as “binds”.
